Measured values published in US12491324B2, “Droplet device with inertial filtering” (PNEUMA RESPIRATORY, INC., priority 2016, dated 2025).
Values joined by “and” are separate entries in the source; they are usually repeats but may differ in a detail not shown here. Identical values can stand only once. Values belong to the substance of their own block, whether it stands above or below them.

How the values were obtained:
Format in all cases: physicochemical
[1] = Anderson Cascade Impactor testing of droplet delivery device with Albuterol sulfate (Example B); conditions: Albuterol 0.5%, 28.3 lpm
Text: FIGS. 21A-21E provide a summary of the test results.

[2] = Insulin stability after aerosol generation, size exclusion chromatography (SEC)
Text: Size Exclusion Chromatography (SEC): Alternately, to determine the stability of active agent after droplet generation, the generated stream of droplets including the active agent may be collected and SEC-HPLIC may be employed to monitor for any changes in large molecule aggregation and protein fragment content. Soluble protein aggregates and protein fragment content may be calculated by comparing respective peak area under the SEC-HPLC curve of dispensed protein solutions with controls (solutions remaining in the device reservoir).
Drug solutions for testing include Enbrel, (ENBREL® single-use prefilled syringes in 25 mg (0.51 mL of a 50 mg/mL solution of etanercept), and insulin, (Humalog, 200 units/ml, 3 ml kwikpens)
Aerosol collection and SEC is performed in a similar fashion as for the Enbrel analysis and aerosol collection.
Fifty microliters of the collected aerosol spray is injected onto the SEC column for analysis, while 50 mcl of the Kwikpen insulin solution is injected onto the SEC column for control samples.

[3] = Gel electrophoresis of active agent after droplet generation; conditions: 'will show'
Text: Gel Electrophoresis: To determine the stability of active agent after droplet generation, the generated stream of droplets including the active agent is collected and the molecular weight of the active agent is verified using gel electrophoresis.

[4] = Enbrel stability after aerosol generation, size exclusion chromatography (SEC)
Text: Size Exclusion Chromatography (SEC): Alternately, to determine the stability of active agent after droplet generation, the generated stream of droplets including the active agent may be collected and […] may be employed to monitor for any changes in large molecule aggregation and protein fragment content. Soluble protein aggregates and protein fragment content may be calculated by comparing respective peak area under the SEC-HPLC curve of dispensed protein solutions with controls (solutions remaining in the device reservoir). Drug solutions for testing include Enbrel, (ENBREL® single-use prefilled syringes in 25 mg (0.51 mL of a 50 mg/mL solution of etanercept), and insulin, (Humalog, 200 units/ml, 3 ml […] is performed with a YarraTM 3 μm SEC-2000 LC column 300×7.8 mm, SecurityGuard cartridge kit and SecurityGuard cartridges GFC-2000, 4×3 mm ID. Fifty microliters of Enbrel from the syringe (ENBREL® single-use prefilled syringes in 25 mg/0.51 mL of a 50 mg/mL solution of etanercept) is diluted (4:1) (4 parts, 200 mcl of the mobile phase buffer solution to 1 part, 50 mcl Enbrel from syringe). Fifty microliter of the diluted Enbrel is injected and separation was performed at a flow rate of 1.0 ml/min. The mobile phase buffer system included a PHOS. BUFF. SALINE. […] UV detection is performed at 280 nm. […] An ampule/cartridge is filled with either 0.20 ml of Enbrel® (50 mg/ml) diluted 4:1 (10 mg/ml) (4 parts (200 mcl) of PBS and 0.025% NaN3 and 1 part (50 mcl of Enbrel solution from the syringe). After 20 actuations and aerosolization, about 150 mcl of the aerosolized Enbrel solution is recovered and collected in the polypropylene tube located below the ejector mechanism. The control consists of the diluted Enbrel solution, 50 mcl of which is injected into the SEC column for analysis.

[5] = aerosolized samples S1, S2 (summary table)
[6] = control, Enbrel diluted 4:1 (10 mg/ml), SEC UV 280 nm

Cum. % < ([1]; FILTER stage, 10 actuations): 0.00% | Cum. % > ([1]; FILTER stage, 10 actuations): 100.00% | Coarse ([1]; summary of deposition): 22.7 | Fine ([1]; summary of deposition): 3.5 | Mouthpiece ([1]; summary of deposition): 12.2 | Respirable ([1]; summary of deposition): 69.3 | Throat ([1]; summary of deposition): 4.6
Substance: Albuterol sulfate

Substance: Insulin: insulin, Humalog, 200 units/ml, 3 ml kwikpens
Peak 3 [2, 5]: 2.797 and 2.184 | Peak 3 Peak Area % ([2]; control, Insulin from Kwikpen 200 U/ml, SEC): 0% | ejected dose forming a fragment ([2]; fragment eluting at ~25 minutes): 2.5%

Substance: adalimumab
change in the electrophoretic mobility, and hence the molecular weight, post-aerosol vs control [3]: negligible change

Substance: bevacizumab
change in the electrophoretic mobility, and hence the molecular weight, post-aerosol vs control [3]: negligible change

Substance: etanercept [Enbrel]
change in the electrophoretic mobility, and hence the molecular weight, post-aerosol vs control [3]: negligible change | Peak 4 [4, 5]: 0.357 and 0.352 | Peak 5 [4, 5]: 5.123 and 3.428 | Peak 4 Peak Area % [4, 6]: 0% | Peak 5 Peak Area % [4, 6]: 0% | dose leading to formation of molecular fragments ([4]; fragments with elution times of 13 and 25 minutes): 4.6%
